In the supplement of paper PMC7877785:
± gives the uncertainty stated by the source.

Test: self-splicing fitness, log relative to wild type (ln ratio); higher = more splicing; Tetrahymena group I intron in knt gene, E. coli kanamycin selection, DiMSum; sequences stand for … in CUCUCU…GGAGGGAAAAGUUAUCAGGCAUGCACCUGGUAGCUAGUCUUUAAACCAAUAGAUUGCAUCGGUUUAAAAGGCAAGACCGUCAAAUUGCGGGAAAGGGGUCAACAGCCGUUCAGUACCAAGUCUCAGGGGAAACUUUGAGAUGGCCUUGCAAAGGGUAUGGUAAUAAGCUGACGGACAUGGUCCUAACCACGCAGCCAAGUCCUAAGUCAACAGAUCUUCUGUUGAUAUGGAUGCAGUUCACAGACUAAAUGUCGGUCGGGGAAGAUGUAUUCUUCUCAUAAGAUAUAGUCGGACCUCUCCUUAAUGGGAGCUAGCGGAUGAAGUGAUGCAACACUGGAGCCGCUGGGAACUAAUUUGUAUGCGAAAGUAUAUUGAUUAGUUUUGGAGUACUCGUGGUCG
How it was run: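 DiMSum derived fitness as the error-weighted combination of fold changes across replicates, kanamycin versus no kanamycin, normalised to wild type. E. coli BL21(DE3) held the library, which randomised all eight P1ex-region intron nucleotides within the knt kanamycin-resistance gene on pET-22b(+). Six replicate transformations grew overnight at 37°C or 30°C on LB agar with or without 25 μg/mL kanamycin, also containing 100 μg/mL carbenicillin, 50 μM IPTG and 0.2% rhamnose, and pooled colonies were amplicon-sequenced on an Illumina HiSeq 2500.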

Sequence	self-splicing fitness (ln) (30 °C)	self-splicing fitness (ln) (37 °C)
GGGGAGCAAUAUUACGUCUG	-2.55 ± 0.37	-1.24 ± 0.24
GGGUAGCAAUAUUACGAAAC	-1.26 ± 0.32	-0.11 ± 0.4
GGGUAGCAAUAUUACGAAGU	-1.74 ± 0.23	-1.57 ± 0.24
GGGUAGCAAUAUUACGAUCA	-0.0146 ± 0.13	0.0752 ± 0.16
GGGUAGCAAUAUUACGCAGA	-2.97 ± 0.28	-1.93 ± 0.26
GGGUAGCAAUAUUACGCCUG	-1.42 ± 0.12	-0.219 ± 0.14
GGGUAGCAAUAUUACGCUAA	-1.32 ± 0.29	-0.0326 ± 0.25
GGGUAGCAAUAUUACGCUUU	-0.389 ± 0.11	-0.688 ± 0.12
GGGUAGCAAUAUUACGGAAC	-0.98 ± 0.11	-1.49 ± 0.19
GGGUAGCAAUAUUACGGAGA	-4.31 ± 0.3	-3.19 ± 0.23
GGGUAGCAAUAUUACGGGAG	-2.54 ± 0.28	-1.44 ± 0.25
GGGUAGCAAUAUUACGGUCG	-0.207 ± 0.12	-0.642 ± 0.096
GGGUAGCAAUAUUACGUAUC	-1.3 ± 0.21	-0.963 ± 0.24
GGGUAGCAAUAUUACGUAUU	-0.286 ± 0.07	-1.06 ± 0.11
GGGUAGCAAUAUUACGUGAA	-1.36 ± 0.13	-0.147 ± 0.16
GGGUAGCAAUAUUACGUGUG	-1.65 ± 0.11	-1.24 ± 0.12
GGGUAGCAAUAUUACGUUAA	-1.72 ± 0.16	-0.668 ± 0.13
GGGUAGCAAUAUUACGUUAG	–	-1.78 ± 0.43
GGUAAGCAAUAUUACGACCC	-1.6 ± 0.26	-1.75 ± 0.43
GGUAAGCAAUAUUACGAGAU	-2.94 ± 0.25	-1.2 ± 0.16
GGUAAGCAAUAUUACGAGUG	-2 ± 0.16	-3.17 ± 0.13
GGUAAGCAAUAUUACGAUAA	-1.43 ± 0.092	-0.994 ± 0.13
GGUAAGCAAUAUUACGCAGC	-0.901 ± 0.24	-1.19 ± 0.23
GGUAAGCAAUAUUACGCCGG	-3.09 ± 0.47	-1.93 ± 0.47
GGUAAGCAAUAUUACGCGAU	-2.17 ± 0.3	–
GGUAAGCAAUAUUACGCUUU	-1.88 ± 0.24	-2.02 ± 0.33

Sequence	self-splicing fitness (ln) (30 °C)	self-splicing fitness (ln) (37 °C)
GGUAAGCAAUAUUACGGAUC	0.0183 ± 0.15	0.125 ± 0.21
GGUAAGCAAUAUUACGGCCA	-1.91 ± 0.39	–
GGUAAGCAAUAUUACGGGCU	-1.76 ± 0.13	-0.874 ± 0.12
GGUAAGCAAUAUUACGGUAC	-1.32 ± 0.08	-0.815 ± 0.13
GGUAAGCAAUAUUACGGUGA	-1.45 ± 0.12	-0.756 ± 0.13
GGUAAGCAAUAUUACGGUGG	-2.82 ± 0.12	-3.18 ± 0.24
GGUAAGCAAUAUUACGUCAU	-0.725 ± 0.14	0.713 ± 0.2
GGUAAGCAAUAUUACGUCCA	-0.363 ± 0.14	-0.817 ± 0.16
GGUAAGCAAUAUUACGUCCG	-0.859 ± 0.11	-0.41 ± 0.15
GGUAAGCAAUAUUACGUGUU	-1.4 ± 0.075	-0.901 ± 0.083
GGUAAGCAAUAUUACGUUAU	-2.4 ± 0.17	-2.3 ± 0.24
GGUAAGCAAUAUUACGUUCU	-1.44 ± 0.12	-0.359 ± 0.12
GGUAAGCAAUAUUACGUUGG	-2.59 ± 0.38	-1.99 ± 0.39
GGUAAGCAAUAUUACGUUGU	-3.1 ± 0.26	-1.61 ± 0.36
GGUCAGCAAUAUUACGACGG	-0.435 ± 0.14	-0.175 ± 0.16
GGUCAGCAAUAUUACGAGAG	-3.37 ± 0.42	-1.16 ± 0.25
GGUCAGCAAUAUUACGCACG	0.0799 ± 0.1	0.287 ± 0.13
GGUCAGCAAUAUUACGCAGU	-1.33 ± 0.11	-0.639 ± 0.13
GGUCAGCAAUAUUACGCAUA	-0.703 ± 0.088	-0.214 ± 0.11
GGUCAGCAAUAUUACGCCGG	-2.68 ± 0.27	-2.79 ± 0.3
GGUCAGCAAUAUUACGCCUC	-0.643 ± 0.12	0.0345 ± 0.14
GGUCAGCAAUAUUACGCGGG	–	-2.61 ± 0.28
GGUCAGCAAUAUUACGGCGC	-0.127 ± 0.12	-0.0173 ± 0.14
GGUCAGCAAUAUUACGGGAU	-1.12 ± 0.16	-2.85 ± 0.38
GGUCAGCAAUAUUACGGGGA	-1.25 ± 0.17	-1.87 ± 0.2
GGUCAGCAAUAUUACGUAAC	-1.32 ± 0.14	-0.628 ± 0.16

Sequence	self-splicing fitness (ln) (30 °C)	self-splicing fitness (ln) (37 °C)
GGUCAGCAAUAUUACGUAAG	-1.87 ± 0.15	-0.22 ± 0.18
GGUCAGCAAUAUUACGUAUC	-0.892 ± 0.078	-0.138 ± 0.1
GGUCAGCAAUAUUACGUGCA	0.0844 ± 0.11	0.539 ± 0.15
GGUCAGCAAUAUUACGUGCC	-2.9 ± 0.23	-0.811 ± 0.26
GGUCAGCAAUAUUACGUGUU	-0.208 ± 0.047	0.537 ± 0.063
GGUCAGCAAUAUUACGUUAG	-2.17 ± 0.14	-1.68 ± 0.18
GGUCAGCAAUAUUACGUUGC	-1.98 ± 0.098	-0.999 ± 0.1
GGUGAGCAAUAUUACGAACC	–	-2.72 ± 0.22
GGUGAGCAAUAUUACGCGCA	-0.814 ± 0.21	-0.146 ± 0.21
GGUGAGCAAUAUUACGGAGU	-3.25 ± 0.26	-1.9 ± 0.19
GGUGAGCAAUAUUACGGAUA	-2.24 ± 0.18	-1.88 ± 0.22
GGUGAGCAAUAUUACGGAUU	-0.567 ± 0.14	-1.26 ± 0.19
GGUGAGCAAUAUUACGGCAU	-1.66 ± 0.25	-1.05 ± 0.28
GGUGAGCAAUAUUACGGCCU	-2.79 ± 0.26	-2.96 ± 0.43
GGUGAGCAAUAUUACGGGAU	-3.28 ± 0.41	-2.62 ± 0.34
GGUGAGCAAUAUUACGGUAA	–	-2.66 ± 0.4
GGUGAGCAAUAUUACGGUAG	-2.67 ± 0.22	-2.59 ± 0.33
GGUGAGCAAUAUUACGGUAU	-3.49 ± 0.23	-3 ± 0.4
GGUGAGCAAUAUUACGGUCU	-0.893 ± 0.14	-0.768 ± 0.2
GGUGAGCAAUAUUACGUAAG	-3.05 ± 0.45	-2.22 ± 0.28
GGUGAGCAAUAUUACGUAGC	-2.64 ± 0.3	-1.27 ± 0.29
GGUGAGCAAUAUUACGUCAC	-3.1 ± 0.34	–
GGUGAGCAAUAUUACGUCUC	-1.28 ± 0.19	-1.61 ± 0.22
GGUGAGCAAUAUUACGUCUU	-0.609 ± 0.2	0.239 ± 0.25
GGUGAGCAAUAUUACGUGGA	-2.86 ± 0.36	-3.3 ± 0.28
GGUGAGCAAUAUUACGUUCG	-2.65 ± 0.37	-2.44 ± 0.32
